In article PMC6444176 (Biochemistry and Biophysics Reports, 2019):

Biological target: the molecule itself
Test: SEC

B1: His-MBP-VWA (hCLCA1 von Willebrand factor type A domain construct, amino acids 240-544) (domain or fragment, human, UniProt A8K7I4 240-544, looked up)
chain: AQHVDSIVEFCTEQNHNKEAPNKQNQKCNLRSTWEVIRDSEDFKKTTPMTTQPPNPTFSLLQIGQRIVCLVLDKSGSMATGNRLNRLNQAGQLFLLQTVELGSWVGMVTFDSAAHVQNELIQINSGSDRDTLAKRLPAAASGGTSICSGLRSAFTVIRKKYPTDGSEIVLLTDGEDNTISGCFNEVKQSGAIIHTVALGPSAAQELEELSKMTGGLQTYASDQVQNNGLIDAFGALSSGNGAVSQRSIQLESKGLTLQNSQWMNGTVIVDSTVGKDTLFLITWTMQPPQILLWDPSGQKQGGFVV
  stoichiometry N: 2
